Reference: US20220064302A1 (GIGAGEN, published 2022)

B1: A20 (antibody, V domains shown)
VH: EVQLVESGGGLVQPGGSLRLSCAASGFTFSFYDMHWVRQAKGKGLEWVSAIGTAGDTYYPGSVKGRFTISRENAKNSLYLQMNSLRAGDTAVYYCARGYCSTTNCFADYFDYWGQGTLVTVSS
VL: DIQLTQSPSFLSASVGDRVTITCRASQGISNYLAWYQQKPGKAPKLLIYAASTLQSGVPSRFSGSGSGTEFTLTISSLQPEDFATYYCHQLNSFPLTFGGGTKVEIK
notes: Tested as full-length mAb expressed in CHO cells; also called antibody 20; L20H20
B2: A15 (antibody, V domains shown)
VH: QVQLQESGPGLVKPSETLSLTCTVSGGSISSYYWSWIRQPPGKGLEWIGYIYYSGSTNYNPSLKSRVTISEDTSKNQFSLKLSSVTAADTAVYYCARDEGATFFDYWGQGTLVTVSS
VL: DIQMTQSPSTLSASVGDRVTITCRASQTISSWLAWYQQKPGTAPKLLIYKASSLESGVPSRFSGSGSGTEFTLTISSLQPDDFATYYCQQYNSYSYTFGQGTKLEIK
notes: Tested as full-length mAb expressed in CHO cells; also called antibody 15; L15H15
B3: A12 (antibody, V domains shown)
VH: QVQLVESGGGVVQPGRSLRLSCAASGFTFSSYGMHWVRQAPGKGLEWVAVIWYDGSNKYYADSVKGRFTISRDNSKNTLYLQMNSLRAEDSAVYYCVCNPFDYWGQGTLVTVSS
VL: DIQMTQSPSSLSASVGDRVTVTCRSSQGIAHYLAWYQQKPGKVPKVLLYAASTLQSGVPSRFSGSGSGTDFTLTISSLQPEDVATYYCQKYNSAPYTFGQGTKLEIK
notes: Tested as full-length mAb expressed in CHO cells; also called antibody A12; L12H12
B4: A26 (antibody, V domains shown)
VH: QVQLVESGGGVVQPGRSLRLSCAASGFTFSDYGMHWVRQAPGKGLEWVAVIWYDGSNKYYTDSVKGRFTISRDNSKNTLYLQMSSLRAEDAAVYYCAVNPFDYWGQGTLVTVSS
VL: DIQMTQSPSSLSASVGDRVTISCRASQGISNYLAWYQQKPGKVPKVLIYGASTLQSGVPSRFSGSGSGTDFTLTISSLQPEDVATYYCQKYNSAPYTFGQGTKLEIK
notes: Tested as full-length mAb expressed in CHO cells; also called antibody 26; L26H26
B5: A28 (antibody, V domains shown)
VH: QVQLVESGGGLVKPGGSLKLSCAASGFTFSDYGMHWVRQAPEKGLEWVAYISSGSFAIYYADTVRGRFTISRDSAKNTLFLQMTSLRSEDTAMYYCARRGPYPYYYSMDYWGQGTSVTVSS
VL: AIQMTQSPSSLSASVGDRVTITCRASQGISSALAWYQQKPGKAPKLLIYAASTLQSGVPSRFSGSGSGTDFTLTISSLQPEDFATYYCLQDYNYPWTFGQGTKVEIK
notes: Tested as full-length mAb expressed in CHO cells; also called antibody 28; L28H28
B6: A25 (antibody, V domains shown)
VH: QVQLVESGGGVVQPGRSLRLSCAASGFTFSSYGMHWVRQAPGKGLEWVGVIWYDGSIKYYADSVKGRFTISRDNSMNTLNLQMNSLRAEDTAVYYCAGDILTGSFDYWGQGTLVTVSS
VL: EIVLTQSPATLSLSPGERATLSCRASQSVSSYLAWYQQKPGQAPRLLIYDASNRATGIPARFSGSGSGTDFTLTISSLEPEDFAVYYCQQRNNWPYTFGQGTKLEIK
notes: Tested as full-length mAb expressed in CHO cells; also called antibody 25; L25H25
B7: A27 (antibody, V domains shown)
VH: QVQLVQSGAELVRPGTSVKLSCRASGYTFTTYWMHWVKQRPGQGLEWIGVIDPSDSYTYYNQKFKGKATLTVDTSSSTAYMQLSSLTSEDSAVYFCARNWDYWGQGTTLTVSS
VL: AIQLTQSPSSLSASVGDRVTITCRASQGISSALAWYQQKPGKAPKLLIYDASSLESGVPSRFSGSGSGTDFTLTISSLQPEDFATYYCQQFNDYALTFGGGTKVEIK
notes: Tested as full-length mAb expressed in CHO cells; also called antibody 27; L27H27
B8: A23 (antibody, V domains shown)
VH: QVQLVESGGGVVQPGRSLRLSCVASGFTFSNYGMHWVRQAPGKGLEWVAIIWYDGSIKYYADSVKGRFTISRDNSKNTLHLQMNSLRAEDTAVYYCARWGIYFDYWGQGTLVTVSS
VL: EIVMTQSPATLSVSPGERATLSCRASQSVSSNLAWYQQKPGQAPRLLIYGASTRATGIPARFSGSGSGTEFTLTISSLQSEDFAVYYCQQYHNWPLTFGGGTKVEIK
notes: Tested as full-length mAb expressed in CHO cells; also called antibody 23; L23H23
B9: A24 (antibody, V domains shown)
VH: QVQLVESGGGVVQPGRSLRLSCAASGFTFSDSGMHWVRQAPGKGLEWVAVIWYDGSKKYYVDSVKGRFTISRDNSKNTLYLQMNSLRAEDTAVYYCATEGDYWGQGTLVTVSS
VL: EIVMTQSPATLSVFPGERATLSCRASQSVSSNLGWYQQKPGQAPRLLMYGASTRVTGIPARFSGSGSGTEFTLTISSLQSEDFAVYYCQQYNTWPRTFGQGTKVEIK
notes: Tested as full-length mAb expressed in CHO cells; also called antibody 24; L24H24
B10: A19 (antibody, V domains shown)
VH: QVQLVESGGGVVQPGRSLRLSCAASGFTFSNYGMYWVRQAPGKGLEWVAVIWYDGSNKYYADSVKGRFTISRDNSKNTLYLQMNSLRAEDTAVYYCAGGGDILTGDYWGQGTLVTVSS
VL: DIQMTQSPSSLSASVGDRVTITCRASQGIRNDLGWYQQKPGKAPKRLIYAASSLQSGVPSRFSGSGSGTEFTLTISSLQPEDFATYYCLQYKSYLYTFGQGTKLEIK
notes: Tested as full-length mAb expressed in CHO cells; also called antibody 19; L19H19
B11: A21 (antibody, V domains shown)
VH: QVQLVQSGAEVKKPGASVKVSCKASGYTFTSYYMHWVRQAPGQGLEWMGIINPSGSSTSYAQKFQGRVTMTRDTSTSTVYMELSSLRSEDTAVYYCARYGVWGSYRSLDYWGQGTLVTVSS
VL: AIQMTQSPSSLSASVGDRVTITCRASQGIRNELGWYQQKPGKAPKLLICAASSLQSGVPSRFSGSGSGTDFTLTISSLQPEDFATYYCLQDYIYPYTFGQGTKLEIK
notes: Tested as full-length mAb expressed in CHO cells; also called antibody 21; L21H21
B12: A16 (antibody, V domains shown)
VH: QVQLVESGGGVVQPGRSLTLSCAASGFTFSNYGMYWVRQAPGKGLEWVAVIWYDGSNKYYADSVKGRFTISRDNSKNTLYLQMNSLRAEDTAVYYCAGGGSYSGDYWGQGTLVTVSS
VL: DIQMTQSPSSLSASVGDRVTITCRTSQDIRNDLGWYQQKPGKAPKRLIYAVSSLQSGVPSRFSGSGSGTEFTFTISSLQPEDFATYYCLQYNTYPFTFGPGTTVDIK
notes: Tested as full-length mAb expressed in CHO cells; also called antibody 16; L16H16
B13: A22 (antibody, V domains shown)
VH: QVQLVESGGGVVQPGRSLRLSCAASGFTFSNYGMHWVRQAPGKGLEWVAVIWYDGSNKYYADSVKGRFTISRDNSKNTLYLQMNSLRAEDTAVYYCARLYYYDSSGYYPDAFDIWGQGTMVTVSS
VL: DIQMTQSPSSLSASVGDRVTITCRASQGIRNDLGWYQQKPGKAPKRLIYAASSLQSGVPSRFSGSGSGTEFTLTISSLQPEDFATYYCLQHNSYPFTFGPGTKVEIK
notes: Tested as full-length mAb expressed in CHO cells; also called antibody 22; L22H22
B14: A17 (antibody, V domains shown)
VH: QVQLVESGGGVVQPGRSLRLSCAASGFTFSSYGMHWVRQAPGKGLEWVAVIWYDGSNQYYADSVKGRFTISRDNSKNTLFLQMNSLRAEDTAVYFCAGGGNYYGDFWGQGTLVTVSS
VL: DIQMTQSPSSLSASVGDRVTITCRASQGIRNDLGWYQQKPGKAPKRLIYAASSLQSGVPSRFSGSGSGTEFTLTISSLQPEDFATYYCLQYISYPWTFGQGTKVEIK
notes: Tested as full-length mAb expressed in CHO cells; also called antibody 17; L17H17
B15: A13 (antibody, V domains shown)
VH: QVQLVQSGAEVKKPGASVKVSCKASGYTFTTYGISWVRQAPGQGLEWMGWISAHNGNTNYAQKFQGRVTMTTDTSTSTAYMELRSLRSDDTAVYYCVRDGAVADYYYGMDVWGQGTTVTVSS
VL: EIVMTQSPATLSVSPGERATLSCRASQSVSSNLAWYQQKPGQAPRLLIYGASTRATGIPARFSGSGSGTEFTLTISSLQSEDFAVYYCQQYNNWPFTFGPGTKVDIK
notes: Tested as full-length mAb expressed in CHO cells; also called antibody A13; L13H13
B16: A18 (antibody, V domains shown)
VH: QVQLVQSGTEVKKPGASVKVSCQASGYTFTSYDISWVRRAPGQGLEWMGWISAYNGNTNYAQKLQGRVTLTTDTSTSTAYMELRSLRSDDTAVYYCARRYYDILTEGGYYYVLDVWGQGTTVTVSS
VL: AIRMTQSPSSFSASTGDRVTITCRASQGISSYLAWYQQKPGKAPTLLIYAASTLQSGVPSRFSGSGSGTDFTLTISCLQSEDFATYYCQQYYSDPPTFGQGTKVEIK
notes: Tested as full-length mAb expressed in CHO cells; also called antibody 18; L18H18

Tests used:
[1] = target: T1, human PD-1 (soluble PD-1 protein, R&D Systems) (human, UniProt Q15116 25-170, limits assumed); experiment: BLI, mAb on AHC biosensor, PD-1 as analyte
T1 construct: the kinetics paragraphs say only 'PD-1' / 'antigen'; also called hPD-1; soluble PD-1 immunogen
Description: The binding specificity and affinity of each full-length antibody towards PD-1 were determined using BLI and/or SPR. […] Anti-cyno PD-1 affinity was measured using BLI.
(§1) For BLI, antibodies were loaded onto an Anti-Human IgG Fc (AHC) biosensor using the Octet Red96 system (ForteBio). Loaded biosensors were dipped into antigen dilutions beginning at 300 nM, with 6 serial dilutions at 1:3. Kinetic analysis was performed using a 1:1 binding model and global fitting.

[2] = target: T1, human PD-1 (soluble PD-1 protein, R&D …); experiment: BLI (ForteBio), mAb on AHC biosensor, PD-1 as analyte
Description: as §1

[3] = target: PD-1 expressed on cells (human, UniProt Q15116 25-288); experiment: cell-based or functional assay
Sequence of PD-1 expressed on cells (Q15116 25-288 limits assumed): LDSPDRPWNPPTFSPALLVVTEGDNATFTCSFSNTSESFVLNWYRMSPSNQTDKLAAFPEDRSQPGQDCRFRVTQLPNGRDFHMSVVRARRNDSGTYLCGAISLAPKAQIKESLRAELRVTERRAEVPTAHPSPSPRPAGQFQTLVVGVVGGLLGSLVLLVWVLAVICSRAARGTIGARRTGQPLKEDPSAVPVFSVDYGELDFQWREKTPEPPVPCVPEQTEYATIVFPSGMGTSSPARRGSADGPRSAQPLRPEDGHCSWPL

T1 sequence (Q15116 25-170 limits assumed): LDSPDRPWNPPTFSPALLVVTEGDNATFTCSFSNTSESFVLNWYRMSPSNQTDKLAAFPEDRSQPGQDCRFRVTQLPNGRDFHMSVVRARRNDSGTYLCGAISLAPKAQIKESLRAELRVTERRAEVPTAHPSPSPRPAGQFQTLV

Kd [1] [µM]	Kd [2] [µM]	koff [2] [s⁻¹]	kon [2] [M⁻¹ s⁻¹]	PD-1/PD-L1 blockage (IC50, µg/ml) [3] [µg/mL]	Binder
0.148	0.148	0.00191	13000	–	B1
0.0083	0.00832	0.00195	235000	–	B2
0.0051	0.00505	0.000516	102000	3.16	B3
0.006	0.00598	0.00104	174000	0.641	B4
0.0238	0.0238	0.00418	176000	0.542	B5
0.792	0.792	0.0579	73100	–	B6
0.0138	0.0138	0.000972	70400	0.528	B7
0.0838	0.0838	0.00184	22000	0.116	B8
0.0085	0.0085	0.00185	217000	0.266	B9
0.0571	0.0571	0.00107	18700	> 3.16	B10
0.013	0.013	0.00142	110000	–	B11
0.086	0.086	0.00655	76100	0.556	B12
0.412	0.412	0.00667	16200	–	B13
0.326	0.326	0.0079	24200	0.533	B14
0.0867	0.0867	0.00294	33900	–	B15
0.0184	0.0184	0.00228	124000	–	B16
